Square brackets hold non-standard residues; d marks the D form. Ends that are not written are not given here. Mpa = O=C(O)CCS
Columns and labels:
Format in all cases: physicochemical
[1] = Secondary structure of peptide in solution by CD
Protocol: (§1) Peptides adopt secondary conformation, which plays a significant role in their biological activity. For peptides in solution, the secondary conformation is measured with CD, while peptides immobilized on a surface can be analyzed with mid-IR spectroscopy of the amide bands (Duevel, R. V., Corn, R. M., 1992. Analytical Chemistry 64(4), 337-342; Sakurai, T. et al., 2006. Journal of Peptide Science 12(6), 396-402). As listed in Table II, the secondary structure of most peptides adopted an α-helical conformation, with the exception of 3-MPA-DSDSD-OH, which adopted an extended conformation. As noted above, most peptides in the form of 3-MPA-peptide-OH adopt an α-helical conformation. Generally, mid-IR and CD agreed in the determination of the structures on surfaces and in solution, with the exception of one peptide. […] No relationship between structure and nonspecific adsorption could be established.

[2] = Secondary structure of peptide SAM by FT-IR (mid-IR amide band); conditions: peptide SAM on gold-coated SPR sensor
Protocol: Microscope slides (BK7, 22×22 mm) were coated with a 3 nm titanium (Ti) adhesion layer and a 50 nm gold (Au) layer (purity 99.99%, ESPI metals) using a Cressington™ 308R sputter coater. These Au-coated SPR slides were immersed for at least 16 h in a 5 mM peptide solution in absolute ethanol to form a well-ordered monolayer (Masson, J. F. et al. Talanta 2004, 64: 716). Four replicates were prepared for each 3-MPA-peptide. The SAM formed on the SPR sensors was extensively rinsed with DMF and ethanol and dried. The mid-IR spectrum of the peptide monolayers immobilized on the SPR sensors was measured in attenuated total reflectance (ATR). Mid-IR spectra were recorded using a BRUKER TENSOR® 27 equipped with a Ge-ATR module.
The 3D structure of the peptides as SAMs is observed with the amide band visible in FT-IR. Peptides adopting an α-helix configuration are showing a strong amide band at 1645 cm^−1, while peptides auto-assembling in the β-sheet configuration leads to a shifted amide at 1675 cm^−1. Every peptide structure investigated in Table 1 adopted an α-helix configuration except for 3-MPA-HHHDD-OH, as shown in FIG. 3.
as §1

[3] = Surface concentration of the peptide monolayer on Au by SPR; conditions: peptide SAM on Au SPR sensor; average of four replicates
Protocol: The surface coverage for each monolayer was measured according to the change in response of the SPR sensor in PBS for the bare Au surface relative to the peptide-coated Au surface. To measure the formation of the monolayers, each SPR sensor was mounted on a custom-made SPR instrument in the Kretschmann configuration based on a dove prism with wavelength interrogation as previously described (Bolduc et al., 2009, supra). An Ocean Optics™ USB4000 fibre optic spectrometer ranging from 550 to 850 nm was used to acquire the spectral information processed with Matlab to obtain the SPR sensorgram. A 25 μL Teflon fluidic cell positioned on top of the SPR sensors was used to inject the solutions required to functionalize with the recognition element and detect the analytes of interest. The SPR response was acquired at a frequency of 1 Hz. The s-polarized reference was acquired in PBS buffer before monitoring a 5 minute baseline in p-polarization. PBS was replaced with crude bovine serum (76 mg/mL protein) for 20 minutes and rinsed with PBS for 5 minutes to quantify the amount of non-specifically adsorbed proteins.
The formation of monolayers on Au was measured to ensure that the peptide monolayers are indeed binding to the SPR sensor. The surface concentration of the monolayer provides a measurement of the number of molecules per square cm (i.e. the density of the monolayer at the surface). The surface concentration (Γ) of peptide-like self-assembled monolayers (SAMs) was characterized with the measurement of the SPR response before the formation of the SAMs and after their formation on the Au surface of the SPR sensor. The difference of SPR wavelength (λSPR) between these two measurements increases with the increasing surface concentration of the SAMs following the equation proposed by Jung et al. (Jung, L. S. et al. Langmuir 1998, 14: 5636): Γ=ρ(−0.5/d)ln(1−(ΔλSPRm^−1(ηSAM−ηPBS)^−1)) (eq. 1)

[4] = Advancing contact angle in PBS on peptide SAMs; conditions: average of four replicates

**Q.** With “3-MPA-GGHHDD-OH ([Mpa]GGHHDD-OH; SMILES O=C(O)C[C@H](NC(=O)[C@H](CC(=O)O)NC(=O)[C@H](Cc1c[nH]cn1)NC(=O)[C@H](Cc1c[nH]cn1)NC(=O)CNC(=O)CNC(=O)CCS)C(=O)O)” as the substance, how does the “Secondary Structure CD (solution)” value [1] read?
**A.** α

**Q.** And the “Secondary Structure FT-IR (SAM)” value [2]?
**A.** α

**Q.** For 3-MPA-SSSDD ([Mpa]SSSDD), which “Surface density ΔΓSAM” value [3] is on record?
**A.** 0.441 10^15 molecule/cm^2

**Q.** What about the “Contact angle in PBS θC_PBS” value [4] of the same substance?
**A.** 38.8 °

**Q.** Which results are given for 3-MPA-LLLSS ([Mpa]LLLSS)?
**A.** Surface density ΔΓSAM [3]: 0.255 10^15 molecule/cm^2; Contact angle in PBS θC_PBS [4]: 32.6 °

**Q.** What does the source list for 3-MPA-SSSHH ([Mpa]SSSHH)?
**A.** Surface density ΔΓSAM [3]: 0.301 10^15 molecule/cm^2; Contact angle in PBS θC_PBS [4]: 40.0 °

**Q.** Which “Surface density ΔΓSAM” value [3] does the source give for 3-MPA-DDDHH ([Mpa]DDDHH) here?
**A.** 0.279 10^15 molecule/cm^2

**Q.** And the “Contact angle in PBS θC_PBS” value [4]?
**A.** 46.4 °

**Q.** Which “Secondary Structure CD (solution)” value [1] does the source give for “3-MPA-SHDSHD-OH ([Mpa]SHDSHD-OH; SMILES O=C(O)C[C@H](NC(=O)[C@H](Cc1c[nH]cn1)NC(=O)[C@H](CO)NC(=O)[C@H](CC(=O)O)NC(=O)[C@H](Cc1c[nH]cn1)NC(=O)[C@H](CO)NC(=O)CCS)C(=O)O)” here?
**A.** extended

**Q.** And the “Secondary Structure FT-IR (SAM)” value [2]?
**A.** α-helical and α

**Q.** Which results are given for “3-MPA-LLHHDD-OH ([Mpa]LLHHDD-OH; SMILES CC(C)C[C@H](NC(=O)CCS)C(=O)N[C@@H](CC(C)C)C(=O)N[C@@H](Cc1c[nH]cn1)C(=O)N[C@@H](Cc1c[nH]cn1)C(=O)N[C@@H](CC(=O)O)C(=O)N[C@@H](CC(=O)O)C(=O)O)”?
**A.** Secondary Structure CD (solution) [1]: α; Secondary Structure FT-IR (SAM) [2]: α

**Q.** Which “Surface density ΔΓSAM” value [3] does the source give for 3-MPA-DDDSS ([Mpa]DDDSS) here?
**A.** 0.311 10^15 molecule/cm^2

**Q.** What about the “Contact angle in PBS θC_PBS” value [4] of the same substance?
**A.** 51.2 °

**Q.** What does the source list for “3-MPA-DHDHD-OH ([Mpa]DHDHD-OH; SMILES O=C(O)C[C@H](NC(=O)[C@H](Cc1c[nH]cn1)NC(=O)[C@H](CC(=O)O)NC(=O)[C@H](Cc1c[nH]cn1)NC(=O)[C@H](CC(=O)O)NC(=O)CCS)C(=O)O)”?
**A.** Secondary Structure CD (solution) [1]: α; Secondary Structure FT-IR (SAM) [2]: α

**Q.** For “3-MPA-LHDLHD-OH ([Mpa]LHDLHD-OH; SMILES CC(C)C[C@H](NC(=O)CCS)C(=O)N[C@@H](Cc1c[nH]cn1)C(=O)N[C@@H](CC(=O)O)C(=O)N[C@@H](CC(C)C)C(=O)N[C@@H](Cc1c[nH]cn1)C(=O)N[C@@H](CC(=O)O)C(=O)O)”, which “Secondary Structure CD (solution)” value [1] is on record?
**A.** α

**Q.** What about the “Secondary Structure FT-IR (SAM)” value [2] of the same substance?
**A.** α

**Q.** What does the source list for “3-MPA-DSDSD-OH ([Mpa]DSDSD-OH; SMILES O=C(O)C[C@H](NC(=O)[C@H](CO)NC(=O)[C@H](CC(=O)O)NC(=O)[C@H](CO)NC(=O)[C@H](CC(=O)O)NC(=O)CCS)C(=O)O)”?
**A.** Secondary Structure CD (solution) [1]: extended; Secondary Structure FT-IR (SAM) [2]: extended

**Q.** For “3-MPA-GGGGD-OH ([Mpa]GGGGD-OH; SMILES O=C(O)C[C@H](NC(=O)CNC(=O)CNC(=O)CNC(=O)CNC(=O)CCS)C(=O)O)”, which “Secondary Structure CD (solution)” value [1] is on record?
**A.** α

**Q.** And the “Secondary Structure FT-IR (SAM)” value [2]?
**A.** α

**Q.** For 3-MPA-LLLHH ([Mpa]LLLHH), which “Surface density ΔΓSAM” value [3] is on record?
**A.** 0.296 10^15 molecule/cm^2

**Q.** And the “Contact angle in PBS θC_PBS” value [4]?
**A.** 41.4 °

**Q.** What does the source list for 3-MPA-LLLDD ([Mpa]LLLDD)?
**A.** Surface density ΔΓSAM [3]: 0.352 10^15 molecule/cm^2; Contact angle in PBS θC_PBS [4]: 52.3 °

**Q.** Which results are given for 3-MPA-HHHSS ([Mpa]HHHSS)?
**A.** Surface density ΔΓSAM [3]: 0.125 10^15 molecule/cm^2; Contact angle in PBS θC_PBS [4]: 39.9 °
